Measured values published in IntAct's records for PubMed 26524528.

Experiments:
lmnb1_human LMNB1 [1] = target: lmnb1_human LMNB1 (UniProt P20700)
lmnb1_human LMNB1 [2] = target: lmnb1_human LMNB1 (UniProt P20700); remark: listed apart in the source
lmnb1_human LMNB1 [3] = target: lmnb1_human LMNB1 (UniProt P20700); remark: listed apart in the source

Substance	effect of a mutation on the interaction (lmnb1_human LMNB1 [1])	effect of a mutation on the interaction (lmnb1_human LMNB1 [2])	effect of a mutation on the interaction (lmnb1_human LMNB1 [3])
Microtubule-associated protein 1 light chain 3 beta (Homo sapiens) (from UniProt Q9GZQ8) G120A	disrupting interaction strength	decreasing interaction strength	–
Microtubule-associated protein 1 light chain 3 beta (Homo sapiens) (from UniProt Q9GZQ8) R10A;R11A	–	–	disrupting interaction strength
